The FLAb antibody collection (doi:10.7554/elife.23156)

Legend:
fluorescein = experiment: Kd (Tite-Seq); conditions: format: scFv 4-4-20, heavy + light
[1] = yeast surface expression (ratio to wild type); higher = more expressed; conditions: format: scFv 4-4-20, heavy + light

- Kd (fluorescein): ≥ 10 µM
B1: unnamed (protein)
chain 1: EVKLDETGGGLVQPGRPMKLSCVASGFEPQSPSPQNKRQSPEKGLEWVAQIRNKPYNYETYYSDSVKGRFTISRDDSKSSVYLQMNNLRVEDMGIYYCTAHETLLCCLWQGTSVTVS
chain 2: DVVMTQTPLSLPVSLGDQASISCRSSQSLVHSNGNTYLRWYLQKPGQSPKVLIYKVSNRFSGVPDRFSGSGSGTDFTLKISRVEAEDLGVYFCSQSTHVPWTFGGGTKLEIK
- yeast surface expression [1]: 0.444
